Assay results as given in CN113880955A (dated 2022).
Residue numbers refer to the chain shown, from its start. Names may count otherwise.

T1: 人CD70 (human, UniProt P32970 1-193)
T1 construct: whole, on cells; also called 人类CD70; CD27L
T1 sequence (looked up): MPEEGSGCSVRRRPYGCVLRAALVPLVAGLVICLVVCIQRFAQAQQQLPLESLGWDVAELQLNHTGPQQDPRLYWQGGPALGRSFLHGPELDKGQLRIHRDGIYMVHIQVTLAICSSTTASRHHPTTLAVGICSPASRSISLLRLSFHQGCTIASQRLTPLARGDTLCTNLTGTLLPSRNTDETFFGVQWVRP

B1: IMM40H (antibody, human IgG1, kappa, V domains shown)
VH: QVQLVQSGAEVKKPGASVKVSCKVSGYTFTDSALHWVRQAPGKGLEWMGVISTYDGDTDYNQKFKGRVTMTEDTSTDTAYMELSSLRSEDTAVYYCARRGYYDYDWFPYWGQGTLVTVSA
VL: DIVLTQSPASLAVSPGQRATITCRASKSVSASGYSFLHWYQQKPGQPPKLLIYLASNLESGVPARFSGSGSGTDFTLTINPVEANDTANYYCQHSRELPPTFGGGTKVEIKR
notes: IgG antibody against CD70; also called CD70抗体IMM40H; CD70单特异性抗体IMM40H
B2: IMM4002 (bispecific antibody, human IgG1, kappa)
heavy: not shown
light: DIVLTQSPASLAVSPGQRATITCRASKSVSASGYSFLHWYQQKPGQPPKLLIYLASNLESGVPARFSGSGSGTDFTLTINPVEANDTANYYCQHSRELPPTFGGGTKVEIKRTVAAPSVFIFPPSDEQLKSGTASVVCLLNNFYPREAKVQWKVDNALQSGNSQESVTEQDSKDSTYSLSSTLTLSKADYEKHKVYACEVTHQGLSSPVTKSFNRGEC
notes: Made in CHO-S cells; also called 重组融合蛋白IMM4002
B3: IMM4002M (bispecific antibody, human IgG1, kappa)
heavy: not shown
light: B2 light with N85E
notes: As IMM4002, but the light chain variable region carries N85E, which removes the glycosylation site (antibody part = IMM40M); also called 重组融合蛋白IMM4002M
B4: Cusatuzumab (antibody, human IgG1, lambda, V domains shown)
VH: EVQLVESGGGLVQPGGSLRLSCAASGFTFSVYYMNWVRQAPGKGLEWVSDINNEGGTTYYADSVKGRFTISRDNSKNSLYLQMNSLRAEDTAVYYCARDAGYSNHVPIFDSWGQGTLVTVSS
VL: QAVVTQEPSLTVSPGGTVTLTCGLKSGSVTSDNFPTWYQQTPGQAPRLLIYNTNTRHSGVPDRFSGSILGNKAALTITGAQADDEAEYFCALFISNPSVEFGGGTQLTVLG
notes: IgG antibody against CD70, used as control
B5: IMM4003 (bispecific antibody, human IgG1, kappa)
heavy: QVQLVQSGAEVKKPGASVKVSCKVSGYTFTDSALHWVRQAPGKGLEWMGVISTYDGDTDYNQKFKGRVTMTEDTSTDTAYMELSSLRSEDTAVYYCARRGYYDYDWFPYWGQGTLVTVSAASTKGPSVFPLAPSSKSTSGGTAALGCLVKDYFPEPVTVSWNSGALTSGVHTFPAVLQSSGLYSLSSVVTVPSSSLGTQTYICNVNHKPSNTKVDKRVEPKSCDKTHTCPPCPAPELLGGPSVFLFPPKPKDTLMISRTPEVTCVVVDVSHEDPEVKFNWYVDGVEVHNAKTKPREEQYNATYRVVSVLTVLHQDWLNGKEYKCKVSNKALPAPIAATISKAKGQPREPQVYTLPPSREEMTKNQVSLTCLVKGFYPSDIAVEWESNGQPENNYKTTPPVLDSDGSFFLYSKLTVDKSRWQQGNVFSCSVMHEALHNHYTQKSLSLSPGK
light: not shown
notes: also called 重组融合蛋白IMM4003

What was measured:
[1] = molecular target: T1, 人CD70; experiment: flow cytometry on CHO cells expressing human CD70
[2] = molecular target: T1, 人CD70; experiment: flow cytometry on CD47+CD70+ U266 cells (double positive: binding through CD70 and/or CD47)
[3] = molecular target: T2, 人CD47 (human, UniProt Q08722 19-323); experiment: as above
T2 construct: whole, on cells

[4] = molecular target: T1, 人CD70; experiment: flow cytometry on CD47+CD70+ Raji cells

T2 sequence (Q08722 19-323): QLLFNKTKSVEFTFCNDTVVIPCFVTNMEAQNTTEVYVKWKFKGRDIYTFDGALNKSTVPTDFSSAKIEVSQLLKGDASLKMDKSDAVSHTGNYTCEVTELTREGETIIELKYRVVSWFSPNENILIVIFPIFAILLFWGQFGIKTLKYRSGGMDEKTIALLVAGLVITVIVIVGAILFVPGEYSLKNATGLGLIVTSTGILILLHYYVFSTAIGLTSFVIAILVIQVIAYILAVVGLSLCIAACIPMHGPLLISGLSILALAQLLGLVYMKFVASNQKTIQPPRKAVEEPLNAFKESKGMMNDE

Binder	binding result [1]	binding result [2]	other results
B1	binds		
B2		binds	
B3		binds	binding result [3]: binds
B4			binding result [4]: binds
B5	binds		
